Assay [1] deals with T1, Gal4NLBD589A (Gal4 DNA-binding domain fused to the Nurr1 ligand binding domain with alanine for aspartic acid … (UniProt P04386 1-147)).
T1 construct: also called pPC97-NLBD589A; pPC97NLBD589A
Kind of assay: yeast two-hybrid, empty prey vector control, growth on -Leu/-Trp/-His (X-gal staining: White).

For assay [2], the target named is T2, VP16-NuIP (HSV VP16 activation domain fused to full-length NuIP) (mouse, UniProt Q8BPQ7 1-1093).
T2 construct: also called pVP16NuIP
T2 sequence: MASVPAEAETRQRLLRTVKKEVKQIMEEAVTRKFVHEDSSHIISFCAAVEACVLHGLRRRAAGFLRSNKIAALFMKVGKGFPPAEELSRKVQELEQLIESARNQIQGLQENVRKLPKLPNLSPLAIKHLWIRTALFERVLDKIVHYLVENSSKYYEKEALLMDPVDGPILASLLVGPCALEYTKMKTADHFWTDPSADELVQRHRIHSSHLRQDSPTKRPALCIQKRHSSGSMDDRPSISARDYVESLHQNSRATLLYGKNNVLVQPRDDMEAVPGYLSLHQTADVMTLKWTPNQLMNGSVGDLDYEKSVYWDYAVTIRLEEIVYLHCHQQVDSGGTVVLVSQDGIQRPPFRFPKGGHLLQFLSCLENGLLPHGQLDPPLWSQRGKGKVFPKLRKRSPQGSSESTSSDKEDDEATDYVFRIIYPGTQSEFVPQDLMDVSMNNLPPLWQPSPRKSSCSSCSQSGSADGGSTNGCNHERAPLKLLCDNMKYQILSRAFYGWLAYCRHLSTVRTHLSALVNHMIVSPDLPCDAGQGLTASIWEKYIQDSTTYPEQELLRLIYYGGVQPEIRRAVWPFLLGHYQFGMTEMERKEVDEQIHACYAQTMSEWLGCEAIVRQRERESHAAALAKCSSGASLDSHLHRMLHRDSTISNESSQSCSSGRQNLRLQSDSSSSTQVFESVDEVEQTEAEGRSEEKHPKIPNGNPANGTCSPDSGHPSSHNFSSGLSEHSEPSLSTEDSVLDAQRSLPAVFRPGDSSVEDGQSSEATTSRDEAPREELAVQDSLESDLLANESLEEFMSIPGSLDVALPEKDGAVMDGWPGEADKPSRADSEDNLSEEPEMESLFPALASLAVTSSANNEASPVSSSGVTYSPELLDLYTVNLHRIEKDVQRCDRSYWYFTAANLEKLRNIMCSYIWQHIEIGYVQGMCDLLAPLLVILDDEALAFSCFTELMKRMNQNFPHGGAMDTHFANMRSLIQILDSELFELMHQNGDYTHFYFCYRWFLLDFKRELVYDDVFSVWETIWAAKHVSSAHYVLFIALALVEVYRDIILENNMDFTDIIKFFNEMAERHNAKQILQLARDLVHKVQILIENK
Briefly: mammalian two-hybrid, luciferase reporter, MN9D cells. Background: A reporter such as luciferase makes a cellular process visible.

Assay [3] concerns the target T3, pPC86-RXR (Gal4 activation domain fused to full-length human RXRα) (human, UniProt P19793 1-462).
T3 construct: also called pPC89RXR
T3 sequence (looked up): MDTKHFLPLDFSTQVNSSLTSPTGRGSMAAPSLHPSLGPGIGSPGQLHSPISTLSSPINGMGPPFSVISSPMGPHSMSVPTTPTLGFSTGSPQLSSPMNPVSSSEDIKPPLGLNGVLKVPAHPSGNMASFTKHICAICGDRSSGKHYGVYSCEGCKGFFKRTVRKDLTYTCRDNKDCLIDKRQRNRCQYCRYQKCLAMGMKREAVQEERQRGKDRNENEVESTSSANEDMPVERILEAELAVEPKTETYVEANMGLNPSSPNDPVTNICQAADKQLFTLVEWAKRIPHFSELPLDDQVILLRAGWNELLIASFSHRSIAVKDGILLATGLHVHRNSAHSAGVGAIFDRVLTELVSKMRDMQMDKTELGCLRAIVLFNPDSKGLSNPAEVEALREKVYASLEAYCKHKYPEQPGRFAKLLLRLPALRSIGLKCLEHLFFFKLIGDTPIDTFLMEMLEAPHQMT
Briefly: yeast two-hybrid, growth on -Leu/-Trp/-His (X-gal staining: White).

B1: Gal4 activation domain alone (empty pPC86 vector) (other, UniProt P04386 768-881, looked up)
chain: ANFNQSGNIADSSLSFTFTNSSNGPNLITTQTNSQALSQPIASSNVHDNFMNNEITASKIDDGNNSKPLSPGWTDQTAYNAFGITTGMFNTTTMDDVYNYLFDDEDTPPNPKKE
notes: Empty prey vector control in yeast two-hybrid; also called pPC89
Turning to B1, the binding result in assay [1] is listed as “no binding”.

B2: Gal4NLBDΔ583 (Gal4 DNA-binding domain fused to the Nurr1 ligand binding domain with the AF2 domain deleted) (other)
chain: DPSPPSPPVSLISALVRAHVDSNPAMTSLDYSRFQANPDYQMSGDDTQHIQQFYDLLTGSMEIIRGWAEKIPGFADLPKADQDLLFESAFLELFVLRLAYRSNPVEGKLIFCNGVVLHRLQCVRGFGEWIDSIVEFSSNLQNMNIDISAFSCIAALAMVTERHGLKEPKRVEELQNKIVNCLKDHVTFNNGGLNRPNYLSKLLGKLPELRTLCTQGLQRIFYLKLEDLVP
notes: Used under the same name as yeast bait (pPC97) and in the mammalian two-hybrid assay in MN9D cells; also called Gal4NLDBA583; Gal4NLBDp583
As to B2, the binding result in assay [2] is given as “binds”; in assay [3], “no binding”.

(Values after patent publication US20110268748A1 (UNIVERSITY OF ROCHESTER, published 2011).)
